Measured values from article PMC7194921.

Biological target: SARS-CoV-2 N-NTD (WT) (SARS-CoV-2, UniProt P0DTC9 41-174)
Assay: SPR

With AAGUUCGUUU (ssRNA) [viral RNA derived intergenic sequence] the Kd was 140 µM.
